Results reported in US20240122981A1 (University of Pennsylvania, published 2024).

Tests used:
[1] = molecular target: T1, CC chemokine receptor 4 (CCR4) (human, UniProt P51679 1-360); assay: flow cytometry on HH cells, KW-0761 conjugated to Ax680
T1 construct: whole, on cells; No recombinant CCR4 was used; also called CD194
T1 sequence (looked up): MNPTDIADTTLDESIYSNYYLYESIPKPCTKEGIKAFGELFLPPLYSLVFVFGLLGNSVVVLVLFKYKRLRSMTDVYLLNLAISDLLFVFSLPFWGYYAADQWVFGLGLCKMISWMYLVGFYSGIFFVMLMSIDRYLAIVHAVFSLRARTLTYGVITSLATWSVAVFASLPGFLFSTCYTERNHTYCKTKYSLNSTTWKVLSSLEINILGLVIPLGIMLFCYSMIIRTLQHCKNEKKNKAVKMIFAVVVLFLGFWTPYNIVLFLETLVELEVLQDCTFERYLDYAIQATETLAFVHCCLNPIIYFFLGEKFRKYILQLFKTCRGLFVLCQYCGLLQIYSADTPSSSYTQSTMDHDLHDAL
Protocol: CCR4 was analyzed by FCM.
Dead cells were gated out by staining with violet amine-reactive viability dye, LIVE-DEAD violet (Invitrogen). Intracellular staining was performed using the Foxp3/Transcription Factor Staining Kit (Affymetrix) per the manufacturer's instructions. CCR4-CAR and CD19-CAR expression were detected by biotinylated antihuman Fab antibody and anti-mouse Fab antibody (Jackson ImmunoResearch), respectively. […] Data were collected either by a Fortessa LSRII or LSR II cytometer (BD Biosciences) and analyzed using FlowJo version 10 software (Tree Star).

[2] = molecular target: T1, CC chemokine receptor 4 (CCR4); assay: flow cytometry on HH cells transduced with the CAR; reduced staining by the parent mAb
[3] = molecular target: T1, CC chemokine receptor 4 (CCR4); assay: flow cytometry on HH cells transduced with the CAR; loss of staining by the parent mAb

B1: anti-CCR4 monoclonal antibody clone KW-0761 (mogamulizumab) (antibody, V domains shown)
VH: EVQLVESGGDLVQPGRSLRLSCAASGFIFSNYGMSWVRQAPGKGLEWVATISSASTYSYYPDSVKGRFTISRDNAKNSLYLQMNSLRVEDTALYYCGRHSDGNFAFGYWGQGTLVTVSS
VL: DVLMTQSPLSLPVTPGEPASISCRSSRNIVHINGDTYLEWYLQKPGQSPQLLIYKVSNRFSGVPDRFSGSGSGTDFTLKISRVEAEDVGVYYCFQGSLLPWTFGQGTKVEIK
notes: also called anti-CCR4 clone KW monoclonal antibody
**Q.** Does B1 bind [1]?
**A.** Result: binds

B2: CCR4(KW_L2H)-CAR (other)
chain: GSDVLMTQSPLSLPVTPGEPASISCRSSRNIVHINGDTYLEWYLQKPGQSPQLLIYKVSNRFSGVPDRFSGSGSGTDFTLKISRVEAEDVGVYYCFQGSLLPWTFGQGTKVEIKGGGGSGGGGSGGGGSGGGGSEVQLVESGGDLVQPGRSLRLSCAASGFIFSNYGMSWVRQAPGKGLEWVATISSASTYSYYPDSVKGRFTISRDNAKNSLYLQMNSLRVEDTALYYCGRHSDGNFAFGYWGQGTLVTVSSSGTTTPAPRPPTPAPTIASQPLSLRPEACRPAAGGAVHTRGLDFACDIYIWAPLAGTCGVLLLSLVITLYCKRGRKKLLYIFKQPFMRPVQTTQEEDGCSCRFPEEEEGGCELRVKFSRSADAPAYKQGQNQLYNELNLGRREEYDVLDKRRGRDPEMGGKPRRKNPQEGLYNELQKDKMAEAYSEIGMKGERRRGKGHDGLYQGLSTATKDTYDALHMQALPPR
notes: Chimeric antigen receptor on the surface of transduced HH cells or primary T cells
**Q.** Does B2 bind [2]?
**A.** Result: binds

B3: CCR4(h1567_L2H)-CAR (other)
chain: DIVMTQSPDSLAVSLGERATINCKSSQSILYSSNQKNYLAWYQQKPGQSPKLLIYWASTRESGVPDRFSGSGSGTDFTLTISSLQAEDVAVYYCHQYLSSYTFGQGTKLEIKGGGGSGGGGSGGGGSGGGGSQVQLVQSGAEVKKPGASVKVSCKASGYTFASYYMHWMRQAPGQGLEWIGWINPGNVNTKYNEKFKGRATLTVDTSTNTAYMELSSLRSEDTAVYYCARSTYYRPLDYWGQGTLVTVSS
notes: Chimeric antigen receptor on the surface of transduced HH cells or primary T cells; also called CCR4-CAR(h1567_L2H); not shown: second-generation CAR backbone (CD8 hinge and transmembrane, 4-1BB, CD3 zeta); the fu
**Q.** Does B3 bind [3]?
**A.** Result: binds
